Experimental findings from patent US6475806 are described below.

The target in the experiment is antibody to hCG. Put plainly: competition: unlabelled hCG displacing hCG-I^125 from the antibody to hCG.

pIC50: −log10 of the molar value.

The substance “hCG (from UniProt P01215 25-116; P0DN86 21-165) (ligand)” gave a negative logarithm of the IC50 (pIC50) of 8.00.

In general, pIC50 refers to −log10 of the IC50, conventionally taken in molar units. The low end stands for a large IC50, the high end for a small IC50.
